For 11 sequences, protein production results are on record in a protein production outcome set (Wang et al. 2014).

This data set in a line: label from the status in PepcDB records.
Regarding “MKIEHVALWTTNLEQMKQFYVTYFGATANDLYENKTKGFNSYFLSFEDGARLEIMSRTDVTGKTTGENLGWAHIAISTGTKEAVDELTEKLRQDGFAIAGEPRMTGDGYYESVVLDPEGNRIEITW”, the protein production entry is listed as “not failed”. Under “MNGSNHMKNKTLVISGATRGIGKAIFVRFAQSGVNIAFTYNKNVEEANKIIEDVEQKYSIKAKAYSLNVLEPEQYTELFKQIDADFDRVDFFISNAIIYGRSVVGGFAPFMRLKPKGLNNIYTATVLAFVVGAQEAAKRMQKIGGGAIVSLSSTGNLVYMPNYAGHGNSKNAVETMVKYAAVDLGEFNIRVNAVSGGPIDTDALKAFPDYVEIKEKVEEQSPLKRMGNPNDLAGAAYFLCDETQSGWLTGQTIVVDGGTTFK” stands “failed”; under “ATKEFIYLVRGMTPEQGQAALDLKVPGVYGIEEFRRFYPAGDVTAHMVGFTDLDDHGREGVELAYDDWLAGVPGKRQVIKDRRGRLIKDVQVTKNAKAGKTLALSID”, “failed”; under “MVKAYQRYDAATSFGVISSVDSNIAYDSTGKYVLAPALEKVGIWHVRQGVCSKTLTPSSSRGGPSLAVTSIASSASSLVAVGYADGSIRIWDTEKGTCEVNFNSHKGAVTALRYNKVGSMLASGSKDNDIILWDVVGESGLFRLRGHRDQVTDLVFLDGGKKLVSSSKDKFLRVWDLETQHCMQIVSGHHSEVWSVDTDPEERYVVTGSADQELRFYAVKEYSSNGSLVSDSNANEIKASEEHSTENKWEILKLFGEIQRQTKDRVARVRFNVSGKLLACQMAGKTIEIFRVLDEAEAKQKAKRRLRRKEKKSSKVGDENSTANGEASAKIELADAVSSPTVLDVFKLLQVIRAGRKISSFSFCPTAPKESLGTLALSLNNNSLEFYSLKSSENAKTVTIEHQGHRSDVRSVTLSEDNTLLMSTSHSEVKIWNPSTGSCLRTIDSGYGLCSLIVPQNKYGIVGTKSGVLEIIDIGSATKVEEVKAHGGTIWSITPIPNDSGFVTVSADHEVKFWEYQVKQKSGKATKKLTVSNVKSMKMNDDVLAVAISPDAKHIAVALLDSTVKVFYMDSLKFYLSLYGHKLPVMCIDISSDGELIVTGSQDKNLKIWGLDFGDCHKSIFAHGDSVMGVKFVRNTHYLFSIGKDRLVKYWDADKFEHLLTLEGHHAEIWCLAISNRGDFLVTGSHDRSMRRWDRSEEPFFLEEEKEKRLEELFESEIDNAADDRHGPMEEIPEEGVAALAGKKTIDVLSAADSIIDALEVAEDETKRHAAYEEEKTKGKVPEYLPNAVMFGLSPSEYVLRAISNVRTNDLEQTLLALPFSDSLKFLCYMKDWSLIPEKVELVSRIATIILQTHHNQLVTTPSARPILSVLRDILYSEIKACKDTIGFNLAAMDHVKQMMDARSDAPFKDAKAKLLEIRSQQAKRMASRGDTKMEKKRKKKQKKLEEGQHGHALF”, “failed”. As for “MKILYIVLDGAADSPTSPRKTLEEASKPNIDSLGSHAVCGMVYTVKPGVAPQSDYATLSLLGYNPDEYYPGRGPLEAFGAGIEMRRGDIALRANFATVDPGTLRIIDRRVGRSLTSREARELASAVDGMELEDGEGTALFRATIGHRGVLVLRHRSKPLSDAISNTDPAYERRGRFSVALEKYEPFIKLSNPLVEDEAAVLAARMLNEFTLKAVEILDSHPVNLAREKRGLLKANAILSRDAGGLPEEKPPSFQERFGLRGASIVEMVVERGISRYIGLDDIRVEIEGRAREEVYREEAARAVEALETHDLVYVHLKGPDEPGHDGSFEGKIRAVEDIDKHFFAPLLDRLSSAGLEPAFVVTSDHATPWDVGAHSGDPVPLMISHQSIQ”, the protein production entry is “failed”. “MIYEPAEDSELLLEAALRELKPDDEVIEVGAGSGFVAERLKGKCKCILTTDISPFAAMELRRKGLDVVMTDIAKGIRKKFSLVLFNPPYVELEDELRRGDWLDVAIDGGKKGVKVIKKFLDSLDEIMAERGRAILIASSQNEPDVFDLIDERGFRYEIVGERGLFFEKLFAIKIWKE”: the protein production entry is “failed”. As to “ADKFTFIGFLSKKDSEQKKQLEELMPLDSTLIFYESPFRVGKTLENVRAIFGEKTKVVLARELTKKFESYYRGDITQALNFIKSNRPRGEFVLLIKKIHEA”, the protein production entry is recorded as “failed”. As for “MTKRHVSLPADAKDVRRAFVSGVDERLSAAETPDELATAVTGTLADLRGERDAYEAWRDGDDVRPAAAARLATLDPRNASLESEYYAEKDEAAFARSKPLQWLWRQFDTTPLADNVDVALPFRRMLAGHLFAGVGEDVRLFKGITMTYGHNIELGDNAVVHDGVHLDDRGELVVGARASVSNGAHLYTHDHDVVDQTDVTNYRTEIGADARVTQGALVRAGVRVGENALVGSRSVVQGDVPAHHIAVGSPAESVRVKPGWEAVAAPLDAGGERRQAERRLDDAVPADAAVYDEFQRDRSPPGER”, the protein production entry was “failed”. “MDNKLPHYSRERLLGEGGMGKVYLAQDNQLQRQVAIKELTYQPKDDEVNHALKEARLLARVNHSNIIQIYNVHDEGDHISLVMEYFNSKTLTQFQQEAYTTLVQKLDLLQQLSAGLAAAHKNGVIHCDLKPSNILVNDQGQLKITDFGIALLASNESQNSEQTASNNPLQFGSLLFMSPEQIKLQAVDYRSDIFSFGIIAYQLMVGSHPFAYGNNGGSATDVAKRICEHTPEHAKNLMLNAPSALTDLLMEMLVKPLEQRTLTAEAIENRLKHIRTALLQAEISEQATMPLSSGSANIAGDDTGQYTQAVHTTLLSQNTQIVQPADNLQASWFKQNYKTVASIALLCLVMILFVGFYNTQEVETKQVVILKPTLADSSLMAPMQQDLVISAVEDALRQAVINTKNMYLISQREVNAITKEYPDDLNKLRQAVGASDIISTTLECDNSRCKVSFSRLVVNDNSSDNLSVKSEKNWLAPVDKFNAIFSTSQTQFASLFPEESEVNQSGLVQRPINENDYRNYIELYSQIKGQGEYSVESLTKLETLLTRSPYLYAAYGLFRETASNLYTDSRDEIHLKRLELVLQNSPPEYRYSVYHAIDSFFVAYKIKELDTAQQQIIEAKNKGASSFVLSELNAILFFSKGQYQKAADTFEEALVLRPSTTLLYNLAFSYWRMGDLSKAEDALNKMLEIIPGNYKAQQLQANIWLLQGKLELAITAYEKIVAALSNGRDLTNLSLAYALNKQYKKSLIYAKKAVDLSPKNRIRRLNLADIEFILGRVKSSNFNYKKVIDAPVDNNKYRYWLDIAQAQLQLNQQNLAIEALNKAKHLAPDNGEVAYTSALVYSVLGERVSAIFEVNKALANKVGSVWFNLPWFDSLCDDKEFELLMVKYNNQKRCRT”: the protein production entry is “failed”. As for “MLFLVKEIYLQHLIQFFYVGFGIFLLYLGGNLLLKSSVGIATYLKVPTLLIGVTIVSFSTSAPELFTSLVAAFKGKNEIVVSNVIGSNIINMLLALPLAGFFLKIKADFKRLKLSFMFLFLLMFLLLLLSFDFRSYSFFVTPYNRFSSFSILILFLSYLLLFYKEEKEYASLENSFQEGASNLNQSFNFIFFNLLSFAISMYFLYLGSKLLVDGALYIANNVFNVSEKLIGIILVAFGTSVPELVVSLFAIIRKESDIAFGNIIGSNIFNIGFILASSSFFRPILLQDIYILDFSIMVFITLVLFLVVKFKGVFGRGISLIFLLLYFLYNLMLFNFY”, the protein production entry is “failed”. To “MASSLITSAVIVVVLSLVLGSVEQVSGLRHVPKSPKTTDVKHPDFLVTIEPKPTILIPGVGRFLLPPKCKKPFYPYNPVTGAPLTGGGIPSYNGGQGAGPHTQLPGGDDTLVPNPGFEAPTPTIGAGTGSNGQVPPVPLP” belongs “failed”.
